In article PMC9927260:

Test system: IBV H120 whole virus (target protein not identified) (Infectious bronchitis virus, live vaccine strain H120)
Experiment: direct ELAA

Question: Which Kd does the source give for “CCAGTATCATCCCTATCGTAGTCCTCAACAACCCCCTACA [Apt_IBV04]” here?
Answer: The Kd was 99.9 nM.

Question: With “CCCCAATCACAGTTAATCCTCGTTCCTATATCTCCCACAC [Apt_IBV01]” as the sequence, how does the Kd read?
Answer: The Kd was 99.2 nM.

Question: For “CACGTCTCTCTATTCGCTCCCTTCGCTAATTGTTCTCTCC [Apt_IBV02]”, which Kd is on record?
Answer: The Kd was 58.2 nM.

Question: With “GACTTCCCTCTTTGTGTGTCATTCGGTGTTCTCGCTTTTG [Apt_IBV05]” as the sequence, how does the Kd read?
Answer: Its Kd is 59.4 nM.

Question: Which Kd does the source give for “CAGACTTTGTTCAGCTCCTCGACTCTTCATTCCCTCCCTT [Apt_IBV03]” here?
Answer: The Kd was 109 nM.
